How the values were obtained:
[1] = molecular target: Arabidopsis uracil phosphoribosyltransferase (UPP), wild type, recombinant (Arabidopsis thaliana); experiment: SEC
[2] = molecular target: UPP-G224L, recombinant (Arabidopsis thaliana); experiment: SEC

stoichiometry N [1] | stoichiometry N [2] | Substance
4 | – | Arabidopsis uracil phosphoribosyltransferase (UPP), wild type, recombinant (enzyme)
– | 2 | UPP-G224L, recombinant (enzyme)

— publication doi:10.1101/2023.08.28.555145
